Numbering of substitutions follows the chain as printed. Where no end group is shown, it is not given here.
B1: GST_I-II loop with five alanines inserted between F376 and L377 (domain or fragment, rabbit, UniProt P27884 369-413, looked up)
chain: RVENRRAFAAAAALKLRRQQQIERELNGYMEWISKAEEVILAEDETDVEQ
B2: GST_I-II loop with five glycines inserted between F376 and L377 (domain or fragment, rabbit, UniProt P27884 369-413, looked up)
chain: B1 chain with A9G, A10G, A11G, A12G, A13G
modifications: not fully specified
B3: GST_I-II loop with seven glycines inserted between F376 and L377 (domain or fragment, rabbit, UniProt P27884 369-413, looked up)
chain: RVENRRAFGGGGGGGLKLRRQQQIERELNGYMEWISKAEEVILAEDETDVEQ
modifications: not fully specified
B4: GST_I-II loop with seven alanines inserted between F376 and L377 (domain or fragment, rabbit, UniProt P27884 369-413, looked up)
chain: RVENRRAFAAAAAAALKLRRQQQIERELNGYMEWISKAEEVILAEDETDVEQ

What follows are binders tested against WT β1b_core (core region of Ca2+ channel β1b subunit, G58-T418) (human, UniProt Q02641-1 58-418) (assay: pull-down).
Sequence of WT β1b_core (core region of Ca2+ channel β1b subunit, G58-T418) (Q02641 58-418): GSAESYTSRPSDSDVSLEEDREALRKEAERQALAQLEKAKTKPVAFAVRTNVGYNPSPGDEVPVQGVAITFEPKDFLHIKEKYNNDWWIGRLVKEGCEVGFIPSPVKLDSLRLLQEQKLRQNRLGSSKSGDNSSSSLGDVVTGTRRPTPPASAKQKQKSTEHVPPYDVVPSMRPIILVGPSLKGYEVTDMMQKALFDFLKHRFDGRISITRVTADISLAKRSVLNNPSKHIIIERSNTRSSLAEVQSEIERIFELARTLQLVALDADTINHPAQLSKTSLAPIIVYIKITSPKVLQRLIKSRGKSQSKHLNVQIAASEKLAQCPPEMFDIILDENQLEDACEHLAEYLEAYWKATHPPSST

Row | binding result | Binder
1 | binds | B1
2 | binds | B2
3 | binds | B3
4 | binds | B4
